Reference: paper PMC6938246

What was measured:
[1] = biological target: filamentous actin (F-actin) (rabbit) (UniProt P68135); assay: co-sedimentation
[2] = biological target: filamentous actin (F-actin) (rabbit) (UniProt P68135); assay: single-molecule TIRF microscopy

Chain of utrophin actin-binding domain (CH1–CH2), wild type (P46939 31-256): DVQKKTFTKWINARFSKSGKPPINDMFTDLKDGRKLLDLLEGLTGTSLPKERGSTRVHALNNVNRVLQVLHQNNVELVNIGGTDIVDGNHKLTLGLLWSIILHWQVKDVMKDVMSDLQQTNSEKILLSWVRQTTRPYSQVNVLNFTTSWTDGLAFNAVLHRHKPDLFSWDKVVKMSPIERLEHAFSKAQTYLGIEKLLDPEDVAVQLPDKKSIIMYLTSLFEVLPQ
Chain of plectin actin-binding domain (CH1–CH2) (domain or fragment) (Q15149 60-293): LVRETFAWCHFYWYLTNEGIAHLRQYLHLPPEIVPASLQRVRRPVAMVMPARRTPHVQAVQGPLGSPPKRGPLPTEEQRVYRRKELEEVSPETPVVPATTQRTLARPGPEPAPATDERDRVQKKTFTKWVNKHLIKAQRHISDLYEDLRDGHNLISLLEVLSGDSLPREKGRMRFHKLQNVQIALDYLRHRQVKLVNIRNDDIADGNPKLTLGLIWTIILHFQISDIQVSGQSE
Chain of utrophin actin-binding domain with residues 1–27 truncated (Δ-n-term) (P46939 28-3433, stated change not applied): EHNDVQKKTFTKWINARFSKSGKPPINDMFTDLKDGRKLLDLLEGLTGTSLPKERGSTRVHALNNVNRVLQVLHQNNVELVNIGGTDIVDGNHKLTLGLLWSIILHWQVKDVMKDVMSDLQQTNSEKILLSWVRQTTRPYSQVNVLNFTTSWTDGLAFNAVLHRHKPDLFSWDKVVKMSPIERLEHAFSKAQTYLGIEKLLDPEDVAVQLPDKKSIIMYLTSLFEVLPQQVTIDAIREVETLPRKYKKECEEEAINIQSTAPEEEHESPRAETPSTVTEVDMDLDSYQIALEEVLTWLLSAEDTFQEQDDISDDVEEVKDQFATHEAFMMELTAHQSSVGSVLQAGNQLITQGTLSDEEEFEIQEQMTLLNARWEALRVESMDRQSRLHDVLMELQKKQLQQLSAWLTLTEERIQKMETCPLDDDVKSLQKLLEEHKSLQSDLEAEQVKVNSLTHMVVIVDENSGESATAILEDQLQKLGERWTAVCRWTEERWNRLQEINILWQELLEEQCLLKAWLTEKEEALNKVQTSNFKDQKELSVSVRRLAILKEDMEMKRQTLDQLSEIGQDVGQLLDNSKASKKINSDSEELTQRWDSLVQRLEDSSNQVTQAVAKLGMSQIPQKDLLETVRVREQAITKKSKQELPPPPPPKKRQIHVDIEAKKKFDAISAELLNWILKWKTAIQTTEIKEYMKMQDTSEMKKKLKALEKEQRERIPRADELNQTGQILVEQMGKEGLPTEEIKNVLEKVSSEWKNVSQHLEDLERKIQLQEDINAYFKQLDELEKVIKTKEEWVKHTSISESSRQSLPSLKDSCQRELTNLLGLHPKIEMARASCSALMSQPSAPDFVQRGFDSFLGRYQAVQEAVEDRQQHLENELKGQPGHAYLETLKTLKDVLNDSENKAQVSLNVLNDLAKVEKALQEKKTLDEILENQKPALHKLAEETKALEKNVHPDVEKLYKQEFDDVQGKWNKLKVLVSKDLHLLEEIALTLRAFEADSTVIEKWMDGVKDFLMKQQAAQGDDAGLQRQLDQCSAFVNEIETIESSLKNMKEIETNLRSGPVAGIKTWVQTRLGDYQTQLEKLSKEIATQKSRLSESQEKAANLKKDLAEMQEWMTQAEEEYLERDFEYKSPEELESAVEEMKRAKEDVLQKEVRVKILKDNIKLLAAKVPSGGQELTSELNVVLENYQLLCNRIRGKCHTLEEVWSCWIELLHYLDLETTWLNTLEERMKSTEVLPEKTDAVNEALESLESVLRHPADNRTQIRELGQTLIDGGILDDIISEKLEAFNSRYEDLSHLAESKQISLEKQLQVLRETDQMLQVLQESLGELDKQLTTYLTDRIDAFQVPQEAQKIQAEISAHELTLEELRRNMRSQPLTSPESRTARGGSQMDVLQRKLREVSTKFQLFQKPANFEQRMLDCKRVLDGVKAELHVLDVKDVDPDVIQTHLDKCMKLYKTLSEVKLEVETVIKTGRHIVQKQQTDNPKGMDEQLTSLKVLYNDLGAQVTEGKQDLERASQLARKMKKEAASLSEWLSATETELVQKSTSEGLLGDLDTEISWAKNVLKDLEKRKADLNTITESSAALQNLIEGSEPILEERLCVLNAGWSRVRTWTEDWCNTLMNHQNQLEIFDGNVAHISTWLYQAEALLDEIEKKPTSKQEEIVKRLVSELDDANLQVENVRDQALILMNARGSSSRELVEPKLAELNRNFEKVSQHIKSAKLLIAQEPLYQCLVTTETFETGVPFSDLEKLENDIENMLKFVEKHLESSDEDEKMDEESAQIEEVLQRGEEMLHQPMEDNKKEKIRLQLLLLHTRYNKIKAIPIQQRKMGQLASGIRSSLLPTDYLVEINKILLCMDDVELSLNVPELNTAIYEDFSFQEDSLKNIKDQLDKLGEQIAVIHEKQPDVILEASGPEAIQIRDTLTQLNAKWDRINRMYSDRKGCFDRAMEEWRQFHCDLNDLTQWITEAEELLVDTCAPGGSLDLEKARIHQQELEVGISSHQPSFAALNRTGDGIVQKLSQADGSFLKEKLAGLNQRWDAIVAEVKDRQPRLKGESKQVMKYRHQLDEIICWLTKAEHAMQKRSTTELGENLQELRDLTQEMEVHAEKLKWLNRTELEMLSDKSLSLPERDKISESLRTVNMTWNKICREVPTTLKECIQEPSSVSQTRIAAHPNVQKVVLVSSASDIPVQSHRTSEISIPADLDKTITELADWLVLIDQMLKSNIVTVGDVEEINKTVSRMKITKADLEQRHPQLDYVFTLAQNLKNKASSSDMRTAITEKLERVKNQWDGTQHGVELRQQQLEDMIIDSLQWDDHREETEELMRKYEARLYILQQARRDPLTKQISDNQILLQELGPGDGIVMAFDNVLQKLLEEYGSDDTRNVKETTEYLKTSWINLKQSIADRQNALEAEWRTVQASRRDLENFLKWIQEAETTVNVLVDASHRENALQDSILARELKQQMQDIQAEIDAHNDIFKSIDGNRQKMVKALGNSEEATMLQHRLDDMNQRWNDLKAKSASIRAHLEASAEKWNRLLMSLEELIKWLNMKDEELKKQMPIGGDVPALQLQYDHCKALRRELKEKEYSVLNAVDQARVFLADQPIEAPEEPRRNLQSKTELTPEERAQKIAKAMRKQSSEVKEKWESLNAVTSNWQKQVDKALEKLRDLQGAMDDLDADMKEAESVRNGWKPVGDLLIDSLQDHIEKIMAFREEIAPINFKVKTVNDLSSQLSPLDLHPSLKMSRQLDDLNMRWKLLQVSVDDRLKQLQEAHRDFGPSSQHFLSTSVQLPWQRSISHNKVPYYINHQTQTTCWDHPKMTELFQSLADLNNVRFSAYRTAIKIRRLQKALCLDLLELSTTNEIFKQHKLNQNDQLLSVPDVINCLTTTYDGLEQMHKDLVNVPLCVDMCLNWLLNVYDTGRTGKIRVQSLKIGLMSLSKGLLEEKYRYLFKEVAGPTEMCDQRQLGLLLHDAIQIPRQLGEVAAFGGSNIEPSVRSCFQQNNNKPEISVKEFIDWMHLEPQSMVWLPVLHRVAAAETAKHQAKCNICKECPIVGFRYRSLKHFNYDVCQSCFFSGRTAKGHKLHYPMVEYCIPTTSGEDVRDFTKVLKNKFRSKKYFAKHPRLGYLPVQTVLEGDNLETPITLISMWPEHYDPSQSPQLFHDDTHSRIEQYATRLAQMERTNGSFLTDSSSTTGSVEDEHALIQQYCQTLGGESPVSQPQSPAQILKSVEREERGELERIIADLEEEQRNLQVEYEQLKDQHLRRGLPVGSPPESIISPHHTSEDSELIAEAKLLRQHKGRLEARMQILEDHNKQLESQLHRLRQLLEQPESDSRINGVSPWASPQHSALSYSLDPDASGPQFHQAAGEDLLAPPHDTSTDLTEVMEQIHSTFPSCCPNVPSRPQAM

Substance	Kd [1]	mean dwell time of binding events [2]
plectin actin-binding domain (CH1–CH2) (domain or fragment)	120 µM	–
plectin actin-binding domain K278E (domain or fragment)	45.1 µM	–
utrophin actin-binding domain (CH1–CH2), wild type (from UniProt P46939 31-256) (domain or fragment)	13.8 µM	0.96 s
utrophin actin-binding domain S158C conjugated with maleimide-750Da PEG (from UniProt P46939 31-256) (domain or fragment)	53.8 µM	–
utrophin actin-binding domain with residues 1–27 truncated (Δ-n-term) (from UniProt P46939 28-3433) (domain or fragment)	31.4 µM	–

These reach a lower Kd [1]. Values come first.

Kd [1]	mean dwell time of binding events [2]	Substance
0.4 µM	8.49 s	utrophin actin-binding domain Q33A T36A (from UniProt P46939 31-256) (domain or fragment)
12.5 µM	–	utrophin actin-binding domain S158C, unconjugated (from UniProt P46939 31-256) (domain or fragment)
